Laboratory results as given in US20060147420A1 (University of Texas, published 2006).
Where no end group is shown, it is not given here.

Target: T1, EGFRvIII (on U-87.ΔEGFRvIII cells) (human, UniProt P00533 25-1210)
T1 construct: whole, on cells; also called de2-7 EGFR; mutant EGFR
Assay: flow cytometry, membrane fluorescence staining of cell suspensions with 1 uM FITC-peptide for 30 min

B1: anti-EGFRvIII peptide (PEPCH1)-FITC (peptide)
peptide: HFLIIGFMRRALCGA
modifications: also: FITC label, position not given here
notes: Synthetic peptide after Campa et al., 2000; Used at 1 uM as a FITC conjugate; also called PEPHC1; PEPHC1 ligand
**Q.** Does B1 bind?
**A.** binds
